{"source": "patent US10010626B2", "about": "“Molecular constructs with targeting and effector moieties” (Immunwork Inc., priority 2015, dated 2018)", "molecules": {"B1": {"name": "TCO-conjugated scFv: scFv of mutated teplizumab (SEQ ID NO: 42) conjugated with Mal-PEG3-TCO (protein)", "scFv": "DIQMTQSPSSLSASVGDRVTITCSASSSVSYMNWYQQTPGKAPKRWIYDTSKLASGVPSRFSGSGSGTDYTFTISSLQPEDIATYYCQQWSSNPFTFGQGTKLQITRGSTSGSGKPGSGEGSTKGQVQLVQSGGGVVQPGRSLRLSCKASGYTFTRYTMHWVRQAPGKGLEWIGYINPSRGYTNYNQKVKDRFTISRDNSKNTAFLQMDSLRPEDTGVYFCARYYDDHYSLDYWGQGTPVTVSSGGGGSGGGGSC", "modifications": "Mal-PEG3-TCO conjugate; mutated teplizumab scFv"}, "B2": {"name": "DBCO-conjugated scFv specific for CD3: scFv of mutated teplizumab (SEQ ID NO: 42) conjugated with Mal-PEG5-DBCO (protein)", "scFv": "B1 scFv", "modifications": "Mal-PEG5-DBCO conjugate; mutated teplizumab scFv"}}, "system": "CD3-Fc-fusion protein", "sequence (P07766 23-126 limits assumed)": "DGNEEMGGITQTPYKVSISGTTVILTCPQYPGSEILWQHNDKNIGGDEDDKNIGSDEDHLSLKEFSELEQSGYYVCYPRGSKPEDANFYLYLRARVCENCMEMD", "experiment": "ELISA analysis of TCO- and DBCO-conjugated scFv specific for CD3", "assay_type": "binding", "conditions": "anti-PD1 scFv negative control, anti-CD3 scFv positive control", "method": "The DNA sequence encoding SEQ ID NO: 42 was synthesized and expressed as in the above Examples. The sequences of VL and VH of scFv specific for CD3 were those of VL and VH of mutated Teplizumab. For the conjugation with Mal-PEG3-TCO and Mal-PEG5-DBCO (Conju-probe, Inc.), the cysteine residue at the C-terminal end of the purified scFv of the mutated teplizumab was reduced by incubating 5 mM DTT at room temperature for 4 hours with gentle shaking. The buffer of reduced anti-CD3 scFv was exchanged to sodium phosphate buffer (100 mM sodium phosphate, pH7.0, 50 mM NaCl, and 5 mM EDTA) by using NAP-10 Sephadex G-25 column. After the reduction reaction and buffer exchange, conjugation was conducted overnight at room temperature in a reaction molar ratio of 1:1 ([Mal-PEG3-TCO or Mal-PEG5-DBCO:[scFv]]. The excess crosslinker was removed by a desalting column and the TCO-conjugated and DBCO-conjugated scFv products were analyzed.\nThe purity of TCO-conjugated scFvs specific for CD3 was identified through Coomassie staining of 12% SDS-PAGE (data not shown). FIG. 23A and […] show, respectively, the ELISA analysis of TCO-conjugated scFv and DBCO-conjugated scFv specific for CD3, in which anti-PD1 scFv and anti-CD3 scFv were used as a negative control and positive control, respectively."}
{"molecule": "B1", "values": [{"measurement": "binding to CD3-Fc-fusion protein (ELISA)", "value": "bound to CD3-Fc-fusion protein"}]}
{"molecule": "B2", "values": [{"measurement": "binding to CD3-Fc-fusion protein (ELISA)", "value": "bound to CD3-Fc-fusion protein"}]}
